Results on three molecules are retold here after patent US20190112362A1 (published 2019).

Positions count from the first letter of the chain named.

This assay has as its target Monomeric cynomolgus monkey Tau (cynomolgus monkey, UniProt P57786 2-459 (rhesus entry)). Put plainly: SPR, hIgG captured, cynomolgus Tau monomer analyte, 1:1 model.

Sequence of Monomeric cynomolgus monkey Tau (P57786 other isoform, or with tags, fused parts or gaps limits assumed, form in doubt): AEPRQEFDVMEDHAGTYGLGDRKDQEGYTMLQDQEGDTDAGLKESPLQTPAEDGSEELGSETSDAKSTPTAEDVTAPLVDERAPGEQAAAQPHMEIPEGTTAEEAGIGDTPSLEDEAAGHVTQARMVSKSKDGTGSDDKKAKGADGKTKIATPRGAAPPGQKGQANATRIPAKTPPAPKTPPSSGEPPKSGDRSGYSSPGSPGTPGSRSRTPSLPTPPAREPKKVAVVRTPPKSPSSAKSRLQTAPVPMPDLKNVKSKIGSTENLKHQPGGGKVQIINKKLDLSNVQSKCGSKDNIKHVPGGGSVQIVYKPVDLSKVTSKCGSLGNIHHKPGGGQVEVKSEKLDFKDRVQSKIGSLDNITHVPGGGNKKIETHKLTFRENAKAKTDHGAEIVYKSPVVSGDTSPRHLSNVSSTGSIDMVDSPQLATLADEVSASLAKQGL

B1: hu37D3.v28.A4 (antibody, V domains shown)
VH: EVQLVESGGGLVQPGGSLRLSCAASGLIFRSYGMSWVRQAPGKGLEWVATINSGGTYTYYPDSVKGRFTISRDNSKNTLYLQMNSLRAEDTAVYYCANSYSGAMDYWGQGTLVTVSS
VL: DDVLTQTPLSLPVTPGQPASISCRSSQSIVHSNGNTYLEWYLQKPGQSPQLLIYKVSNRFSGVPDRFSGSGSGTDFTLKISRVEAEDVGVYYCFQGSLVPWTFGQGTKVEIK
notes: also called hu37D3-H9.v28.A4
For B1, the Kd was 0.7 nM, the koff came to 0.001 s⁻¹ and the kon amounted to 1.7e+06 M⁻¹ s⁻¹.

B2: hu37D3-H9.v1 (antibody, V domains shown)
VH: B1 VH
VL: EDQLTQSPSSLSASVGDRVTITCRSSQSIVHSNGNTYFEWYQQKPGKSPKLLIYKVSNRFSGVPSRFSGSGSGTDFTLTISSLQPEDFATYYCFQGSLVPWTFGQGTKVEIK
notes: Kappa1 framework
For B2, the Kd is 0.8 nM and the kon was found to be 2e+06 M⁻¹ s⁻¹.

B3: hu37D3-H9.v5 (antibody, V domains shown)
VH: B1 VH
VL: B1 VL with D1E, L38F
notes: Kappa2 framework
The molecule B3 showed a dissociation constant Kd of 0.6 nM, a koff of 0.001 s⁻¹ and a kon of 1.5e+06 M⁻¹ s⁻¹.
